Measurements from article PMC5750218, “Protein-inspired antibiotics active against vancomycin- and daptomycin-resistant bacteria” (Nature Communications, 2018).
Where two headings read alike, the source gives them in different places.

Tests used:
S. aureus ATCC 43300 = assay: Membrane depolarisation assay (diSC3(5)); type: cell-based, Staphylococcus aureus; conditions: 16 µg mL^−1, 30 min, MRSA ATCC 43300
Method: Antibiotic-induced bacterial cytoplasmic membrane depolarisation was determined using the fluorescent dye 3,3-dipropylthiacarbocyanine diSC3(5) (Sigma Aldrich, Australia) as previously described. Briefly, early exponential phase cells were pelleted and washed twice in 10 mM HEPES buffer (pH 7.4) containing 50 µg mL^−1 of CaCl2 and 5 mM Glucose, and then re-suspended in the same buffer (2 × 10^8 CFU mL^−1). diSC3(5) was added to a final concentration of 1.5 µM and incubated at room temperature in the dark to enable dye uptake and fluorescence quenching. After 30 min, cells were diluted 50-fold in assay buffer and 45 µL of cells were added to a 384-well black walled polystyrene plate (Corning, CLS3573) (Note: NBS plates were not employed, and no polysorbate-80 was added to avoid potential effects on membrane permeability, or interference with fluorescence as previously reported. The MICs of compounds in polystyrene plates are listed in Supplementary Table 12). Background data was collected before adding compounds using a Tecan Infinite® m1000 Pro Multi-mode reader (excitation/emission 612/665 nm) to ensure fluorescence quenching. Compounds were added to a final concentration of 16 µg mL^−1 and fluorescence was monitored for 30 min. Data were corrected by subtraction of background response (diSC3(5) in the presence of untreated cells, no compound). […] Each sample was tested in quadruplicate and independent assays were performed twice showing similar results. Data were analysed and presented using Prism software.

[1] = system: bioluminescent MSSA Xen-29; assay: Bioluminescence IP infection in vivo model (neutropenic mice); design: species or system Staphylococcus aureus; conditions: SC: 200 mg kg^−1 vancomycin, 50 mg kg^−1 daptomycin, 25 mg kg^−1 19 or 24
Method: Performed at the University of Queensland, following similar previous literature procedures. Xen-29 (Caliper LifeSciences), a methicillin-sensitive S. aureus (MSSA) strain which contains a copy of the modified luxABCDE operon of Photorhabdus luminescens was taken from the storage at −80 °C and freshly seeded on agar plates for overnight growth at 37 °C. From the overnight culture preparation, a single colony (tested for bioluminescence) was diluted into 10 mL of MHB and incubated overnight at 37 °C. A mid log-phase subculture was obtained by adding 100 μL of overnight subculture in 10 mL MHB and incubated for a further 2–3 h. Finally, the OD600 value of the bacterial suspension was determined and the colony forming units per millilitre (CFU mL^−1) was extrapolated. The suspension was then diluted out accordingly in order to achieve a 2.5 × 10^8 CFU mL^−1 solution (2.5 × 10^7 CFU in 100 μL). […] Mice were monitored for signs of normal behaviour (i.e. grooming, eating, drinking, sleeping and alertness) during and following dosing. […] Xen-29 colonies were then counted, with the CFU mL^−1 blood calculated. […] Luminescent images were quantified with the IVIS Living Image software where the total flux (number of photons/second) was calculated by a user defined region of interest (ROI) covering the infection sites.

[2] = cited from earlier work; for log decrease: CAMHB with polysorbate-80; for log reduction from initial inoculum: nutrient-depleted media, ref Belley AAC 2009 53, 918
[3] = for half-life / microsomal CLint: liver microsomes; for Microsome-Predicted EH: hepatic extraction ratio
Method: Performed by CDCO, Monash University, Australia.
The metabolic stability assay was performed by incubating each test compound (1 μM) with human (Xenotech, Lot #1210057) and mouse (Xenotech, Lot #1110071) liver microsomes at 37 °C and 0.4 mg mL^−1 protein concentration. The metabolic reaction was initiated by the addition of a nicotinamide adenine dinucleotide phosphate (NADPH)-regenerating system (i.e. NADPH is the cofactor required for cytochrome P450-mediated metabolism) and quenched at various time points over the 60 min incubation period by the addition of acetonitrile. Control samples (containing no NADPH) were included (and quenched at 2, 30 and 60 min) to monitor for potential degradation in the absence of cofactors. Concentrations of each test compound in quenched samples were determined by ultra performance liquid chromatography mass spectrometry (UPLC-MS) (Waters/Micromass Xevo triple quadrupole mass spectrometer). […] In addition, glucuronidation was not considered in this study and may require further assessment using alternative test systems.
Test compound concentration vs. time data were fitted to an exponential decay function to determine the first-order rate constant for substrate depletion. In cases where clear deviation from first-order kinetics was evident, only the initial linear portion of the profile was utilised to determine the degradation rate constant (k). Each substrate depletion rate constant was then used to calculate: (1) a degradation half-life, where t 1/2 = ln(2) k ^−1; (2) an in vitro intrinsic clearance value, where CLint,in vitro = k [microsomal protein content (0.4 mg mL^−1)]^−1; (3) a predicted in vivo hepatic intrinsic clearance value, where CLint = CLint,in vitro × [liver mass (g)/body weight (kg)] × [microsomal protein (mg) / liver mass (g)]; and (4) a predicted in vivo hepatic extraction ratio, where E H = CLblood Q ^−1 = Clint [Q + Clint]^−1.
Scaling parameters assumed were: human liver mass 20 g liver / kg body weight, human microsomal protein 40 mg g^−1 liver mass[49], [50], human hepatic blood flow (Q) 20.7 mL min^−1 kg body weight^−1 [51], mouse liver mass 87.5 g liver / kg body weight, mouse microsomal protein 45 mg g^−1 liver mass[51], mouse hepatic blood flow (Q) 90 mL min^−1 kg body weight^−1 [51].

Structure (SMILES) | Dissipation of membrane potential (diSC3(5) fluorescence) (S. aureus ATCC 43300) | Change in bioluminescence signal (total flux) after inoculation [1] | half-life ([3]; human) [h] | microsomal CLint ([3]; human) [µL/min/mg] | Microsome-Predicted EH ([3]; human) | half-life ([3]; mouse) [h] | microsomal CLint ([3]; mouse) [µL/min/mg] | Microsome-Predicted EH ([3]; mouse) | further results
CN[C@H](CC(C)C)C(=O)N[C@H]1C(=O)N[C@@H](CC(N)=O)C(=O)N[C@H]2C(=O)N[C@H]3C(=O)N[C@H](C(=O)N[C@H](C(=O)O)c4cc(O)cc(O)c4-c4cc3ccc4O)[C@H](O)c3ccc(c(Cl)c3)Oc3cc2cc(c3O[C@@H]2O[C@H](CO)[C@@H](O)[C@H](O)[C@H]2O[C@H]2C[C@](C)(N)[C@H](O)[C@H](C)O2)Oc2ccc(cc2Cl)[C@H]1O [Compound 1, Vancomycin] | no effect | progressive reduction in the bioluminescence signal | – | – | – | – | – | – | –
CN[C@H]1C(=O)N[C@@H]2Cc3ccc(cc3)Oc3cc4cc(c3O[C@@H]3O[C@H](C(=O)O)[C@@H](O)[C@H](O)[C@H]3NC(=O)CCCCCCCCC(C)C)Oc3ccc(cc3Cl)[C@@H](O)[C@@H]3NC(=O)[C@H](NC(=O)[C@@H]4NC(=O)[C@@H](NC2=O)c2cc(cc(O)c2Cl)Oc2cc1ccc2O)c1ccc(O)c(c1)-c1c(O[C@H]2O[C@H](CO)[C@@H](O)[C@H](O)[C@@H]2O)cc(O)cc1[C@@H](C(=O)NCCCN(C)C)NC3=O [Compound 3, Dalbavancin] | no effect | – | – | – | – | – | – | – | log reduction ([2]; 32 µg mL-, 24h, ref Belley AAC 2016 60 4342): 3 log
CCCCCCCCCC(=O)N[C@@H](Cc1c[nH]c2ccccc12)C(=O)N[C@H](CC(N)=O)C(=O)N[C@@H](CC(=O)O)C(=O)N[C@@H]1C(=O)NCC(=O)N[C@@H](CCCN)C(=O)N[C@@H](CC(=O)O)C(=O)N[C@H](C)C(=O)N[C@@H](CC(=O)O)C(=O)NCC(=O)N[C@H](CO)C(=O)N[C@@H]([C@H](C)CC(=O)O)C(=O)N[C@@H](CC(=O)c2ccccc2N)C(=O)O[C@@H]1C [Compound 4, Daptomycin] | no effect | progressive reduction in the bioluminescence signal | – | – | – | – | – | – | –
CN[C@H](CC(C)C)C(=O)N[C@H]1C(=O)N[C@@H](CC(N)=O)C(=O)N[C@H]2C(=O)N[C@H]3C(=O)N[C@H](C(=O)N[C@H](C(=O)O)c4cc(O)cc(O)c4-c4cc3ccc4O)[C@H](O[C@H]3C[C@](C)(N)[C@@H](O)[C@H](C)O3)c3ccc(c(Cl)c3)Oc3cc2cc(c3O[C@@H]2O[C@H](CO)[C@@H](O)[C@H](O)[C@H]2O[C@H]2C[C@](C)(NCc3ccc(-c4ccc(Cl)cc4)cc3)[C@@H](O)[C@H](C)O2)Oc2ccc(cc2Cl)[C@H]1O [Compound 5, Oritavancin, reference compound] | – | – | – | – | – | – | – | – | log decrease ([2]; 4 µg mL-, 1h, ref Belley AAC 2016 60 4342): 4.5 log; log decrease ([2]; 4 µg mL-, 1h, ref Mckay, J Antimicrob Chemother 2009, 63 1191): 4.5 log; log reduction from initial inoculum ([2]; 4 µg mL-): 3 log; log decrease ([2]; 16 µg mL-, 30 min, ref Belley AAC 2016 60 4342): 4.5 log; log reduction from initial inoculum ([2]; 16 µg mL-, 3h, no polysorbate-80): approximately 4 log
CCCCCCCCCCC(=O)N[C@@H](CCCCN)C(=O)N[C@@H](CCCCN)C(=O)N[C@@H](CCCCN)C(=O)N[C@@H](CCCCNC(=O)[C@H]1NC(=O)[C@H]2NC(=O)[C@H](NC(=O)[C@@H]3NC(=O)[C@H](CC(N)=O)NC(=O)[C@H](NC(=O)[C@@H](CC(C)C)NC)[C@H](O)c4ccc(c(Cl)c4)Oc4cc3cc(c4O[C@@H]3O[C@H](CO)[C@@H](O)[C@H](O)[C@H]3O[C@H]3C[C@](C)(N)[C@H](O)[C@H](C)O3)Oc3ccc(cc3Cl)[C@H]2O)c2ccc(O)c(c2)-c2c(O)cc(O)cc21)C(=O)O [Compound 18, nC10CO-KKK-K(Vancomycin)-OH] | – | – | > 4.17 | < 7 | < 0.23 | 3.93 | 7 | 0.24 | –
CCCCCCCCCCC(=O)N[C@@H](CCCCN)C(=O)N[C@@H](CCCCN)C(=O)N[C@@H](CCCCNC(=O)[C@H]1NC(=O)[C@H]2NC(=O)[C@H](NC(=O)[C@@H]3NC(=O)[C@H](CC(N)=O)NC(=O)[C@H](NC(=O)[C@@H](CC(C)C)NC)[C@H](O)c4ccc(c(Cl)c4)Oc4cc3cc(c4O[C@@H]3O[C@H](CO)[C@@H](O)[C@H](O)[C@H]3O[C@H]3C[C@](C)(N)[C@H](O)[C@H](C)O3)Oc3ccc(cc3Cl)[C@H]2O)c2ccc(O)c(c2)-c2c(O)cc(O)cc21)C(=O)O [Compound 19, nC10CO-KK-K(Vancomycin)-OH] | – | – | > 4.17 | < 7 | < 0.23 | > 4.17 | < 7 | < 0.23 | –
